# Test results reported in the domain aggregation screens of Martell et al. (2025).
# Experiment: soluble fraction after stress (log2 fold change); higher = more stays soluble; pooled small domains, quantitative proteomics
# Details: stress: 50 degC
# In short: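 Custom libraries of small protein domains were pooled and measured in a high-throughput format, with quantitative proteomics as the read-out. Each library was stressed at 50°C. The value is the log2 fold change in the amount of each protein that stays soluble after stress, used as a measure of aggregation propensity; higher values mean more of the protein stays soluble.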
row,Sequence,soluble fraction (log2)
1,HMREFQVMKQELQEMVHQRLDMSTELSDEAIGDVIDEVIMEKSRNMYISSVTKLTLRQELFNAIR,-0.629
2,HMREGRERRLSQLLSYLRTHHILTRSEYVKLTGLSPTAASSELKTFVTAGHIVRKGIASHSTYRLPH,-1.71
3,HMREKLKEYVHLLFAGTVGKEDMEQEILQNTLDRFDDWVARGFSEEDAYRKAVSGIGDIDALLG,-0.288
4,HMREPDPELTASIKSMAESNDQSERLVALAQLSEQRAVDPEVADQILLIALLDEDPIIRGQAVYA,0.264
5,HMRERLPFGFAQSKKVVLLSTESDTPKVLSVNWPSLDLYAELKRVIGRAFLLEIVSEEEFQAQVSDAYQRD,-2.24
6,HMREVGVPNLRGLTAEEAQIVLSNAGLNLRTEPIRRVHETITVGRIAEQDPMPDLTIRSQRSVTTWLSSGP,0.317
7,HMREVTVGSAVRLKKGAKTYSGGSLASFVYERNHQVTQLSGDRAVISFKGTVVAAVHKDDLIL,-0.916
8,HMREVVLNRIGSVAVQRATTRTWEEWVVTLDAEGMRGKEHRDVVGHLLRAHELTSWWAQMVSVGYEQSRGQ,-0.166
9,HMREYRITAEEGHPRIDVFLAGRPEIGLSRSRIQALIDEGQVTLNGAMPKARQAVNPGDVIVVRVPDPE,0.263
10,HMRFEWFDTLTDREKEIFGLIATGFDNQQIADRLQLAEQTVRNNISTIYSKLEVKDRFEIIRLANTI,-0.706
11,HMRFKPLAEILAAVQTRYAGRVLDVELDRDQAGRNVYEVKLLAADGSRREIHIDAVTGKEVSL,-0.0325
12,HMRGAIKMAEEQMAGHKKIGSISGTAPTQGELEKKFAMAAAQMGARYYVITGLSNNNYAFGNADIY,-0.316
13,HMRGDEDTGVWPTPMKRAYIDSLLKGYPTGVTMIVKPPGASHTTKWMILDGANRARALRDFMNDEFMI,-0.163
14,HMRGFTDFEHIEKEYLATIEKLNWPDGVTLPDKLEGEDTGTSFQVGYGDTRASNLWEYSWMK,-0.0186
15,HMRGIPEEVADVAIQWVARLDSNEISDADRAAFFAWLDASPINRWAYNDISESWAKLSILNEMGH,-1.6
16,HMRGLFTVYMVGEKASRVGELDEEMVYESRIGDVFALGATSWRIEEITHDRVLVSPAYGQPGRLPFWH,-2.14
17,HMRGLGDLEPVDSLGKIRIDDGHMVLAFGRHKGRHLSEVQAEDPRYIHWLLSPKGIEDVEAREKVKVYLEG,-0.0024
18,HMRGLLSQREHDVLDLVARGFSYGEIARLRSISVSTVQTHIKNLYRKLAVSSRTEAVYEAKQMGI,-1.59
19,HMRGLVPEIVGTLEGEIRAGTLAVGQKLPTEAEIMARFDVSRTVVREALSRLQASDLVETRHGIGTFVSAR,-0.368
20,HMRGPDLSKDFHEYISSQWMFFGRNAYQIAEQINKDTQLMSKYGKTTPSGVHYHIKQIQQEMEN,-0.398
21,HMRGPPQVLVDVELEDGRVGQIGVRNGDDATELAETFVRAFRLEQSFVGRLANVIQGKIRELLHSQ,-0.889
22,HMRGSRIFSGDVSPLTLPANSPFFSGYTEFKPGDVYVERSATNIAMWEWKSQPGGYTWVKTADIA,-0.169
23,HMRGYGDRIRILRERAGITIEQLAERLGVAPYFIRRTELSEVYPTKPYIEALADVLNIDASYLARHI,-1.81
24,HMRHYVLKENNGVIAIYKVNQENEAVFKENTQIQVQYLPEVDLINLKKGIYAIGEEKLNSILEDF,-0.613
25,HMRIDSFEDARRRFEYDYLTRLLKLTQGSVTQAAKLAKRNRTEFYKLLQRHGIEAAHFKPTS,-0.581
26,HMRIDVWLAENGFAPSRQKAQDLIAAGRVFQTDPSGRRQKVSKASAAVDPALSPKIEVIPDPE,0.161

row,Sequence,soluble fraction (log2)
1,HMRILGIDPGYAITGYSIIDYVGNKFKLIDSGAVLTKAGVSFPLRLTKIYDDLSMIIDEYKPDA,-0.207
2,HMRIPANIAEDIKKLQKKEHHLHHHLGRDPFDDELAKELEWDTEQVSEIRQMIKNPELLEELLEAEREEE,0.172
3,HMRITEQRRTLAKLFADTPGYLSPKDVYDYMGRFYPGLSFDTVYRNLRLLDELGVLEQVVFEDGVKFK,-0.718
4,HMRIWTISDLYKNVEDKKVSLAVFSEDNDSNKVNVLDINGEEHSVNLLKADLPTLVDLFRKNDVRFAVRSN,0.12
5,HMRIWTPEMIKEYIISSNGKEPLNSHYYSTNHPSIYAAAERIFGSWGNAINAAGLDYNAIRKYK,-0.00482
6,HMRIYFSPSEIGFYHESDKQAYLLAGTWPNDLLEISEKWFLYLLEGQQKGKVITVNDYDQPVLVD,-3.31
7,HMRIYTKDEYLAELSRYLHKLPQDDYESAMAYFREYFEEAGPENEAQAMRDLGTPKEAASEILQNLLH,-0.305
8,HMRKDYTVLYSAVNAEEATEIVSKLQESGVAYQYKDNGDVLVDKKQVDKVRAQLAQEGYPKS,0.164
9,HMRKIEDVLRLHAQGMSTRRIALATGVGKTTVIEYLRRAAVAGLSWPLPEGLDEEALERRVFPPPP,-1.45
10,HMRKIFPFNPNFITDQRGYFLGMSTSEIDRLHHFRAANKWIQSAQEFQVVTKVSNAWLSEFSPYFNFP,-3.39
11,HMRKKTYEIITDDLRRMIEAGLIRPGEKLGAIDQLAAKYRVGRSTVREALSHLKALGLVESRQGGGTYVTK,0.156
12,HMRKNVAGITPNVYGMGLKDAVYLLENAGYRVKVNGRGNVVRQSINSGTRIIKGQLIILDLD,-2.73
13,HMRKSNADALDGKTGIVKEEIKTGGYGYVGIDGDMWRSISESGEAIPAGTKVVVISHESIILTVKPA,-0.315
14,HMRKTLASTAYDSIKAGIVSGEINNNLLLSENTLAKILNMSRTPIREAIKRLEAESYLKSVDGVGLIVQE,-0.211
15,HMRKTLSQEAYEKIKQNLEDGVYQGYINGRQVARDLDIGFTPVREAFLQLQSEGLIRKEDNVGYFV,0.139
16,HMRKTYHVDAYQDDKWWVLQVQEMPNAISQVKSLDQADEWIREAINIVSNEPEDSFDVVIIPV,-0.612
17,HMRKVTDTHELSSVVKSVIDQWEEKAAEYRAGKSGLLGFFVGEVMKKTGGAADPEAAKSLLQDRLD,0.18
18,HMRKYEAVPASVVPAQIQEYVAKSNFPNQYIRKIERNKYTWEIELSNGLEIKFDRQFNVIGFD,-1.49
19,HMRLGQLQSVEEPKFIEVHSGKQGDIGEQTIVEYEIDAKYATGDATINLKLLFRDGLFEIYNFNFSSEALL,0.0828
20,HMRLNIRTKNNYSYYTIIKDYTNLNGKRTTTIFEKLGNQQQVEERFGKVNTIENIKKYIEELNNE,-1.23
21,HMRLPAISYSFARKHGVVLRLDGDRPVASLREGADPAILIEVKRHLDGAMGVEKVSEAAFDQLLSTTYA,-0.484
22,HMRLPNGYGSITKLSGKRRKPFMVRITTGYDNEGKQLMSVLGYYATRTEALAVLAEYNKNPYNPI,-2.57
23,HMRLPNHYGSVVKLSGKRRRPFMVRGGVYGYDDRGYPQYVIVGYTETREQGLTMLAEYNRNP,-3.22
24,HMRLPVELTDREVEVLRLLAQAMSNGEIARELYIGEATVKTHVSNVLQKLGARDRVAAVVWAHRYGL,-1.59
25,HMRLSAADLQSYLKGMDYPASRQDLIAHARGHNAPEEAVATLEQFSDRTYRSAADVSVEFGRE,0.25
26,HMRLSPTMVETLIAMLNRNAYPAYENNSRTFASLEERGLIQPDIEGNWSLTDTGHQTALKLLK,0.0915

row,Sequence,soluble fraction (log2)
1,HMRLSVRQRMSDVLGALKTQAFVEFTQLFRPQEGRMGVTVTFSAILELLREGLIEIVQSEPFAPIHVRAGA,-0.0036
2,HMRMDKHLWLSLLRLINEGSAEELQTKKDELLQSLERLRITRGPVRGDVLRVVRLIDEELVSRLHLDQR,-2.29
3,HMRMTKPLPFDLAAFRNEFGFTKSIIMQEVGVSRHIYDNVERTNATPPEFYDDFVSFFQRHGQ,-1.04
4,HMRMTPRQALDDLIREREETYAAVSRLLGRNTAYIQQYIKRGTPARLDQSDIAQLALHFDVPAKLLGGKE,-0.943
5,HMRMTTEQLMSFLKQHFPQVADNFTVRISDEGRLSVEMPVNDKHLRPGGTVSGPSMFALADVAFYLAILQ,-1.16
6,HMRNERDRQLYAAMEKLKAEYREALYLVYFENMSYRDAAAVMAQTEKQISNLVYRGKQSLKTILEQEGF,-2.65
7,HMRNGGHTVYRNNGSLFIVVRDGDKLESVASEFRVSPKKLIKYNDLDIHSNVKTGDMIYIRPKA,-0.236
8,HMRNLYEILGVSKDAPQGEIKSAYRKLAKTYHPDLNPNNEKAAELFKEINQAYEVLSDETKRRHYDQFGEA,0.312
9,HMRNMTDYLTIVRAVYGGLSQRQAATTYHVSRNTVSLLIRHAKNQGWLTVEDLSRADAAAFSPA,-0.517
10,HMRNMVSVLDHIEGIGPKRRQLLYEHYGELEKIKEASVEEMAGLDGMNRPAAEAVYNFFLAQRNL,0.0507
11,HMRNSSLQTDLELRAYVIDGLNHFWTPEEIAGRWSLAHPDRPVSFATIYRHIKRKLLPGIEPKTHLRRRGK,-2.55
12,HMRPEARAASLSDEERKIFDYLAANGEKTIDNISVAVKMSAADILKNITLMSAKGLVYMPSAGRYGVKGN,-0.00201
13,HMRPNREKDMADLEKLAPFLLQMLTNYAQMTGDEKPLNAFITRFGYAAQIRDIQDFFMGPWHPA,≥ 0.62
14,HMRPQIAIDAIQALSLIMRTENKEDPTYLESRRVVSDAVAKRLSLNPTDLNRAWSRAPRDHQIAVLSALTQ,-0.853
15,HMRPRGTRLPTGWTPSSDALDWTKAEKPGLDPLQTLEKFRDYWTAQPGQKGVKTDWDATWRNWVRREIP,0.172
16,HMRPSGTAGILRYLSSGAIRGIGATTAQRLVSEFGEKTLDVMENEPERVAMLKGISKSKAEDFSLQLKQS,0.0105
17,HMRPTAWEQVSRHIDQHGSIGNTEVRKAMETENVLAASKQIKKWLEQGLLIILNPTAGTRARRYSKPNM,-0.287
18,HMRPTDVLNYDESMRILNFSNNRVGFKHLMDAKGIEQVIFKNRKIGYRKSEILALKSELEAEQK,-0.341
19,HMRPYAYGTGRRKSSTARVHLIPNGSGSITINGRTLDEYFGLETLKLIVRQPLAATETAEKFDVEATVV,-0.415
20,HMRQDEKTLLYWIGAQVKREGKLIKTSTAQYLVEKTGTDMENLEKELEKLFAYTLDEKEITPAAIDEI,-1.8
21,HMRQIRELFRLKFGSLLPTSDRQIAAQLGVARSTVAEYLERARAAGLSWPLPLDLSDADLEERLFA,-2.75
22,HMRQMSEELQSAKEALEDRRTQEKAVLLLMEHRNISNDEAHRLLRKLAMDQGKRLPEVARALVSMAGVL,0.132
23,HMRQSKMREAILAAVSAQKLEISDLHVWRIGEQRYAAIIGLATTQAESVSALRDSLAQMDKLVHLTIDQ,-1.89
24,HMRQTGWVTADSLNVRARPSLQAERVEKVTYGQQVQIMFKQGQWYQIATENGKIGWVSSEYIAAVSP,-0.0654
